Laboratory results taken from paper PMC10716145, “ZNF524 directly interacts with telomeric DNA and supports telomere integrity”.
Residue numbers refer to the chain shown, from its start.

Tests used:
[1] = target: T1, ZNF524 ZF1-4 minimal domain (human, UniProt Q96C55 110-223); experiment: ITC; ITC: 20 mM Tris-HCl pH 7.5, 150 mM NaCl, 20 C; pull-down: 50 mM Tris-HCl pH 7.5, 150 mM NaCl, 0.5% IGEPAL, 5 mM MgCl2, 1 mM DTT, salmon sperm DNA, 4 C; conditions: protein: recombinant; tags: none (GST removed by TEV); blunt
T1 sequence: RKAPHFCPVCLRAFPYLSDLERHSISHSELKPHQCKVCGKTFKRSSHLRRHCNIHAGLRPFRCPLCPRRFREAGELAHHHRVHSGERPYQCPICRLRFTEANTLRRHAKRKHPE

ZNF524 ZF1-4 R180A = target: T2, ZNF524 ZF1-4 R180A (human, UniProt Q96C55 110-223, R180A); experiment: as above; conditions: protein: recombinant; tags: none (GST removed by TEV); blunt
T2 sequence: T1 sequence with R71A

ZNF524 ZF1-4 R159A = target: T3, ZNF524 ZF1-4 R159A (human, UniProt Q96C55 110-223, R159A); experiment: as above; conditions: protein: recombinant; tags: none (GST removed by TEV); blunt
T3 sequence: T1 sequence with R50A

ZNF524 ZF2-3 = target: T4, ZNF524 ZF2-3 (human, UniProt Q96C55 138-196); experiment: as above; conditions: protein: recombinant; tags: none (GST removed by TEV); blunt
T4 sequence: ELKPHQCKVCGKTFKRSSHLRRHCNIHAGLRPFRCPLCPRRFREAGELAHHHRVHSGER

ZNF524 ZF1-4 N211G = target: T5, ZNF524 ZF1-4 N211G (human, UniProt Q96C55 110-223, N211G); experiment: as above; conditions: protein: recombinant; tags: none (GST removed by TEV); blunt
T5 sequence: T1 sequence with N102G

ZNF524 ZF1-4 R131A = target: T6, ZNF524 ZF1-4 R131A (human, UniProt Q96C55 110-223, R131A); experiment: as above; conditions: protein: recombinant; tags: none (GST removed by TEV); blunt
T6 sequence: T1 sequence with R22A

ZNF524 ZF2M = target: T7, ZNF524 ZF2M (human, UniProt Q96C55 110-223, R153A;S155A;H156A;R159A); experiment: as above; conditions: protein: recombinant; tags: none (GST removed by TEV); blunt
T7 sequence: T1 sequence with R44A, S46A, H47A, R50A

ZNF524 ZF1-4 E184A = target: T8, ZNF524 ZF1-4 E184A (human, UniProt Q96C55 110-223, E184A); experiment: as above; conditions: protein: recombinant; tags: none (GST removed by TEV); blunt
T8 sequence: T1 sequence with E75A

ZNF524 ZF1-4 R153A = target: T9, ZNF524 ZF1-4 R153A (human, UniProt Q96C55 110-223, R153A); experiment: as above; conditions: protein: recombinant; tags: none (GST removed by TEV); blunt
T9 sequence: T1 sequence with R44A

ZNF524 ZF1-4 H156A = target: T10, ZNF524 ZF1-4 H156A (human, UniProt Q96C55 110-223, H156A); experiment: as above; conditions: protein: recombinant; tags: none (GST removed by TEV); blunt
T10 sequence: T1 sequence with H47A

ZNF524 ZF1-4 S155A = target: T11, ZNF524 ZF1-4 S155A (human, UniProt Q96C55 110-223, S155A); experiment: as above; conditions: protein: recombinant; tags: none (GST removed by TEV); blunt
T11 sequence: T1 sequence with S46A

[2] = target: T12, ZNF524 ZF2-4 (ZF1 removed) (human, UniProt Q96C55 138-223); experiment: as above; conditions: protein: recombinant; tags: none (GST removed by TEV); blunt
T12 sequence: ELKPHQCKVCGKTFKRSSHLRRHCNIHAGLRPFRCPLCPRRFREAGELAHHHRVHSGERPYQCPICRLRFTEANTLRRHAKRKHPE

ZNF524 ZF1-4 R215A = target: T13, ZNF524 ZF1-4 R215A (human, UniProt Q96C55 110-223, R215A); experiment: as above; conditions: protein: recombinant; tags: none (GST removed by TEV); blunt
T13 sequence: T1 sequence with R106A

ZNF524 ZF1-4 E181A = target: T14, ZNF524 ZF1-4 E181A (human, UniProt Q96C55 110-223, E181A); experiment: as above; conditions: protein: recombinant; tags: none (GST removed by TEV); blunt
T14 sequence: T1 sequence with E72A

ZNF524 ZF3-4 = target: T15, ZNF524 ZF3-4 (human, UniProt Q96C55 166-223); experiment: as above; conditions: protein: recombinant; tags: none (GST removed by TEV); blunt
T15 sequence: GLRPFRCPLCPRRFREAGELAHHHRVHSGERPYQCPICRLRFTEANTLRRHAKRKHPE

[3] = target: T16, ZNF524 ZF1-3 (ZF4 removed) (human, UniProt Q96C55 110-196); experiment: as above; conditions: protein: recombinant; tags: none (GST removed by TEV); blunt
T16 sequence: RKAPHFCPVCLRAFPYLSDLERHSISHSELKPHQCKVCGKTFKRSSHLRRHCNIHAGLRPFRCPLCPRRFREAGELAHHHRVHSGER

[4] = target: T1, ZNF524 ZF1-4 minimal domain; experiment: ITC; annealed in 100 mM NaCl; ITC: 20 mM Tris-HCl pH 7.5, 150 mM NaCl, 20 C; pull-down: 50 mM Tris-HCl pH 7.5, 150 mM NaCl, 0.5% IGEPAL, 5 mM MgCl2, 1 mM DTT, salmon sperm DNA, 4 C; conditions: protein: recombinant, tags: none (GST removed by TEV), single strand
ZNF524 ZF1-4 (crystal) = target: T17, ZNF524 ZF1-4 (crystal) (human, UniProt Q96C55 107-237); experiment: crystal structure 2.40 A; Zn2+; ITC: 20 mM Tris-HCl pH 7.5, 150 mM NaCl, 20 C; pull-down: 50 mM Tris-HCl pH 7.5, 150 mM NaCl, 0.5% IGEPAL, 5 mM MgCl2, 1 mM DTT, salmon sperm DNA, 4 C; conditions: protein: recombinant; tags: none (GST removed by TEV); 5' overhang 1 nt at each end (A and T)
T17 sequence: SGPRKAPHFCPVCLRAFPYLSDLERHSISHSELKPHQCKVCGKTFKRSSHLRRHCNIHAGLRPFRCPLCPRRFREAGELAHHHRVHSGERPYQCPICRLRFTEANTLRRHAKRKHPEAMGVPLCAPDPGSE

B1: TGAGGG duplex (dsDNA)
DNA 1: GGTGAGGGTGAG
DNA 2: CTCACCCTCACC
Kd [1]: 270 ± 110 nM

B2: TTAGGG 12-bp duplex (dsDNA)
DNA 1: GGTTAGGGTTAG
DNA 2: CTAACCCTAACC
Kd (ZNF524 ZF1-4 R180A): 410 ± 80 nM | Kd (ZNF524 ZF1-4 R159A): 100 ± 90 nM | Kd (ZNF524 ZF2-3): 1210 ± 790 nM | Kd (ZNF524 ZF1-4 N211G): 170 ± 30 nM | Kd (ZNF524 ZF1-4 R131A): 340 ± 50 nM | Kd [1]: 90 ± 20 nM | binding result (ZNF524 ZF2M): no binding | Kd (ZNF524 ZF1-4 E184A): 230 ± 130 nM | Kd (ZNF524 ZF1-4 R153A): 150 ± 40 nM | Kd (ZNF524 ZF1-4 H156A): 60 ± 40 nM | Kd (ZNF524 ZF1-4 S155A): 250 ± 30 nM | Kd [2]: 620 ± 100 nM | Kd (ZNF524 ZF1-4 R215A): 220 ± 60 nM | Kd (ZNF524 ZF1-4 E181A): 420 ± 90 nM | binding result (ZNF524 ZF3-4): no binding | Kd [3]: 590 ± 150 nM

B3: GTGAGT duplex (dsDNA)
DNA 1: GTGTGAGTGTGA
DNA 2: TCACACTCACAC
binding result [1]: no binding

TTAGGGTTAGGGTTAGGGTTAGGG (ssDNA) [(TTAGGG)4-ssDNA]
binding result [4]: no binding

B4: telomeric crystal duplex (dsDNA)
DNA 1: AGGGTTAGGGTTAGG
DNA 2: TCCTAACCCTAACCC
binding result (ZNF524 ZF1-4 (crystal)): binds

B5: TTGGGG duplex (dsDNA)
DNA 1: GGTTGGGGTTGG
DNA 2: CCAACCCCAACC
Kd [1]: 330 ± 130 nM

B6: TCAGGG duplex (dsDNA)
DNA 1: GGTCAGGGTCAG
DNA 2: CTGACCCTGACC
Kd [1]: 280 ± 40 nM
